Here are results for four molecules from patent publication US20130230527A1 (University of California, published 2013).

Experiment [1] concerns the target T1, biotin conjugated 24 amino acid peptide of the extracellular loop of human EMP2 (human, biotin conjugated (position not given)).
T1 construct: The EMP2 part is followed by a GSGSK tail; also called hEMP2 peptide; hEMP2
T1 peptide: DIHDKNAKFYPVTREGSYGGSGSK
Nature of the experiment: ELISA on cognate EMP2 peptide (data not shown). In general terms: ELISA stands for enzyme-linked immunosorbent assay.

The target of experiment [2] is T2, biotin conjugated 24 amino acid peptide of the extracellular loop of mouse EMP2 (mouse, biotin conjugated (position not given)).
T2 construct: The EMP2 part is followed by a GSGSK tail; also called mEMP2 peptide; mEMP2
T2 peptide: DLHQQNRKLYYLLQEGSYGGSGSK
Nature of the experiment: ELISA on cognate EMP2 peptide (data not shown).

Experiment [3] has as its target T2, biotin conjugated 24 amino acid peptide …. Nature of the experiment: ELISA on peptide-coated plates. On the procedure:
(§1) 10 μg/mL of biotinylated 24 amino acid peptide (see the phage library selection section above) was coated onto streptavidin-coated 96-well plates (Roche Applied Science, Indianapolis, Ind.) in PBS for 1 hour at room temperature. Plates were then washed with PBS and blocked with 2% milk PBS for 2 hours at 37° C. Expressed phage antibodies or diabodies were added to each well, incubated at room temperature for 1 hour, and washed with 0.05% PBS/Tween three times. Bound antibodies or diabodies were detected with mouse anti-c-Myc (9E10) antibody (Calbiochem, San Diego, Calif.), followed by horseradish peroxidase (HRP) conjugated anti-mouse antibody (BD Bioscience Pharmingen, Franklin Lakes, N.J.) and TMB solution (eBioscience, San Diego, Calif.). Plates were read by microplate reader Model 550 (Bio-Rad, Hercules, Calif.) at 450 nm.
(§2) Specificity and titer of selected diabodies were initially tested by ELISA using plates coated with hEMP2 or mEMP2 peptides. […] Using monovalent scFv products of these two antibodies, the EC₅₀ for cognate EMP2 peptide was >2 μg/mL (data not shown). Thus, divalency contributed to the avidity of the two anti-EMP2 diabodies.

Experiment [4] has as its target T1, biotin conjugated 24 amino acid peptide …. Description: ELISA, diabody titration on hEMP2 peptide on streptavidin plates. On the procedure:
as §1, §2

The target is the same in experiment [5]. Nature of the experiment: method and target not given; reference is the original scFv.
For experiment [6] the target is unchanged. Nature of the experiment: ELISA on peptide-coated plates. On the procedure: as §1, §2
Experiment [7] addresses T2, biotin conjugated 24 amino acid peptide …. Description: ELISA, diabody titration on mEMP2 peptide on streptavidin plates. How it is done:
as §1, §2

For experiment [8] the target is unchanged. Description: method and target not given; reference is the original scFv.

B1: KS49 monovalent scFv (scFv)
scFv: MAQVQLVQSGGGVVQPGRSLRLSCAASGFTFSSYAMHWVRQAPGKGLEWVAVISYDGSNKYYADSVKGRFTISRDNSKNTLYLQMNSLRAEDTAVYYCARDRRGRKSAGIDYWGQGTLVTVSSGGGGSGGGGSGGGGSDIQMTQSPSSLSASVGDRVTITCQASQDISNYLNWYQQKPGKAPKLLIYAASSLQSGVPSRFSGSGSGTDFTLTISSLQPEDFATYYCLQDYNGWTFGQGTKVDIKRAAAEQKLISEEDLNGAAHHHHHH
notes: The original scFv before the linker was shortened; also called KS49 scFv
Consider B1, for which the EC50 (in general, the concentration needed to bring the measured effect to its halfway point) in experiment [1] is > 2 µg/mL.

B2: KS83 monovalent scFv (scFv)
scFv: MAQVQLVESGGGLVQPGGSLRLSCAASGFTFSSYAMHWVRQAPGKGLEWVAVISYDGSNKYYADSVKGRFTISRDNSKNTLYLQMNSLRAEDTAVYYCARTVGATGAFDIWGQGTMVTVSSSGGGGSGGGGSGGGGSDIVMTQSPSTVSASVGDRVIIPCRASQSIGKWLAWYQQKPGKAPKLLIYKASSLEGWVPSRFSGSGSGTEFSLTISSLQPDDSATYVCQQSHNFPPTFGGGTKLEIKRAAAEQKLISEEDLNGAAHHHHHH
notes: The original scFv before the linker was shortened; also called KS83 scFv
Regarding B2, the EC50 in experiment [2] is > 2 µg/mL.

B3: anti-EMP2 diabody KS49 (other)
chain: MAQVQLVQSGGGVVQPGRSLRLSCAASGFTFSSYAMHWVRQAPGKGLEWVAVISYDGSNKYYADSVKGRFTISRDNSKNTLYLQMNSLRAEDTAVYYCARDRRGRKSAGIDYWGQGTLVTVSSSGGGSDIQMTQSPSSLSASVGDRVTITCQASQDISNYLNWYQQKPGKAPKLLIYAASSLQSGVPSRFSGSGSGTDFTLTISSLQPEDFATYYCLQDYNGWTFGQGTKVDIKRAAAEQKLISEEDLNGAAHHHHHH
notes: Diabody: bivalent dimer of a VH-5 aa linker-VL chain with c-Myc and 6 His tags, made in E. coli TG1; Selected against the hEMP2 peptide; also called K49; anti-hEMP2 diabody
For B3, the binding result in experiment [3] is listed as “no binding”. This molecule registered an EC50 in experiment [4] of 0.0531 µg/mL. Further, in experiment [5], the “fold increase in binding activity compared to original scFvs” value is > 20 fold.

B4: anti-EMP2 diabody KS83 (other)
chain: MAQVQLVESGGGLVQPGGSLRLSCAASGFTFSSYAMHWVRQAPGKGLEWVAVISYDGSNKYYADSVKGRFTISRDNSKNTLYLQMNSLRAEDTAVYYCARTVGATGAFDIWGQGTMVTVSSSSGGGSDIVMTQSPSTVSASVGDRVIIPCRASQSIGKWLAWYQQKPGKAPKLLIYKASSLEGWVPSRFSGSGSGTEFSLTISSLQPDDSATYVCQQSHNFPPTFGGGTKLEIKRAAAEQKLISEEDLNGAAHHHHHH
notes: Diabody: bivalent dimer of a VH-5 aa linker-VL chain with c-Myc and 6 His tags; Selected against the mEMP2 peptide; also called K83; diabody 83
On to B4, for which the binding result in experiment [6] was “no binding”. Besides, in experiment [7], the concentration for a half-maximal effect (EC50) is 0.00932 µg/mL. In addition, the “fold increase in binding activity compared to original scFvs” value in experiment [8] is > 20 fold.
